Experimental findings from patent publication US20250011468A1 (Novo Nordisk, published 2025) are described below.

Holding throughout (test): cell-based or functional assay
Assay [1] deals with T1, human plasma-derived FIXa (Haematologic Technologies Inc) (human, UniProt P00740 47-191; P00740 227-461).
Assay [2] addresses T1, human plasma-derived FIXa (Haematologic …). This is another data set of the same source.
The target is the same in assay [3]. This is another data set of the same source.

Numbering of substitutions follows the chain as printed.

T1 sequence (P00740 47-191, chain 1 of 2): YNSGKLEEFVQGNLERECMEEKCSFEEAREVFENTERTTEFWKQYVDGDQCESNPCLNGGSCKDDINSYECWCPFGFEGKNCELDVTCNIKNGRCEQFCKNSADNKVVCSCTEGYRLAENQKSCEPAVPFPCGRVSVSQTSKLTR
T1 sequence (P00740 227-461, chain 2 of 2): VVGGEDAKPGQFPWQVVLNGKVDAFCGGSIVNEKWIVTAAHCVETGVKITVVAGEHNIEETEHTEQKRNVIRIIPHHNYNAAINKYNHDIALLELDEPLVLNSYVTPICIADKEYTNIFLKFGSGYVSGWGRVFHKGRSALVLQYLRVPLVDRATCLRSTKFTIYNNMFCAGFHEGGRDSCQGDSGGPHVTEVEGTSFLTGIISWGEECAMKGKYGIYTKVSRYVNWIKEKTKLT

B1: mAb1-4857 (antibody, V domains shown)
VH: EVQLVESGGGLVQPGRSLKLSCAASGFTFDDYAMHWVRQVPGKGLEWVSGISWRGDIIGYVDSVKGRFTISRDNAKNSLYLQLNSLRAEDTALYYCVKSYGSGSFYNAFDSWGQGTLVTVSS
VL: DIQMTQSPSTLSASAGDRVTITCRASQSISSWLAWYQQKPGKAPKFLIYKASRLERGVPSRFSGSGSGTEFSLTISSLQPDDFATYYCLEYSSYIRTFGQGTKVEIK
B1: the “Peak stimulatory activity relative to 224F3” value in assay [1] was 66.5 fold relative to 224F3. Further, in assay [2], the “FXa generation rate at 3.2 nM mAb” value amounted to 302 pM/min, the “FXa generation rate at 6.3 nM mAb” value amounted to 491 pM/min, the “FXa generation rate at 12.5 nM mAb” value was found to be 685 pM/min and the “FXa generation rate at 25 nM mAb” value amounted to 1000 pM/min. Moreover, in assay [2], the “FXa generation rate at 50 nM mAb” value was 1190 pM/min, the “FXa generation rate at 100 nM mAb” value is 1260 pM/min and the “FXa generation rate at 200 nM mAb” value was 1300 pM/min.

B2: mAb4-5925 (bispecific, mAb1-4857/mAb1-6723) (bispecific antibody, V domains shown)
VH 1: B1 VH
VL 1: B1 VL
VH 2: EVQLVQSGAEVKKPGESLRISCKGSGYSFTTSWIVWVRQMPGKGLEWMGMIDPSDSFTSYSPSFQGHVTISADKSISTAYLQWSSLKASDTAMYYCARLHYYHSEEFDVWGQGTLVTVSS
VL 2: EIVLTQSPGTLSLSPGERATLSCRASQSVSSSYLAWYQQKPGQAPRLLIYGASSRARGIPDRFSGSGSGTDFTLTISRLEPEDFAVYYCQQFGSSRLFTFGQGTKLEIK
On to B2, for which the “Maximum stimulation (fold), at 533 nM BiAb” value in assay [3] was found to be 5200 fold.

B3: mAb4-7789 (bispecific, mAb1-6584/mAb1-6463) (bispecific antibody, V domains shown)
VH 1: EVQLVQSGAEVKKPGESLRISCKGSGYSFRPYWIGWVRQMPGKGLEWMGMIDPSDSYTDYGPSFRGHVTISADKSISTAYLQWSSLKASDTAMYYCARVRIRAGAFDIWGQGTMVTVSS
VL 1: DIVMTQSPLSLPVTPGEPASISCRSSQSLLHSTWYNYLNWYLQKPGQSPQLLIYLGKNRASGVPDRFSGSGSGTDFTLKISRVEAEDVGVYYCMQVLHIPYTFGQGTKLEIK
VH 2: not shown
VL 2: not shown
Consider B3, for which the “Maximum stimulation (fold), at 253 nM BiAb” value in assay [3] is 3530 fold.

B4: mAb1-4707 (antibody, V domains shown)
VH: EVQLVESGGGLVQPGRSLRLSCAASGFTFGDYAMHWVRQAPGKGLEWVSGISWVSGSIGYARSVKGRFTISRDNAKNSLYLQMNSLRAEDTALYYCAKGQYDEDAGMDVWGQGTTVTVSS
VL: DIQMTQSPSSLSASVGDRVTITCRASQSIRSYLNWYQQKPGKAPKLLIYAASSLQSGVPSRFSGSGSGTDFTLTISSLQPEDFATYYCQQGYPTWTFGGGTKVEIK
Regarding B4, the “Peak stimulatory activity relative to 224F3” value in assay [1] is 35.9 fold relative to 224F3. Besides, in assay [2], the “FXa generation rate at 3.2 nM mAb” value came out at 662 pM/min, the “FXa generation rate at 6.3 nM mAb” value is 714 pM/min, the “FXa generation rate at 12.5 nM mAb” value turned out to be 697 pM/min and the “FXa generation rate at 25 nM mAb” value turned out to be 685 pM/min. In addition, in assay [2], the “FXa generation rate at 50 nM mAb” value came out at 629 pM/min, the “FXa generation rate at 100 nM mAb” value came to 581 pM/min and the “FXa generation rate at 200 nM mAb” value is 586 pM/min.

B5: mAb1-4763 (antibody, V domains shown)
VH: B4 VH with V54N, R62K
VL: B4 VL with S28W, R30S, Q55P
In the case of B5, the “Peak stimulatory activity relative to 224F3” value in assay [1] was 20 fold relative to 224F3. In assay [2], the “FXa generation rate at 3.2 nM mAb” value stood at 370 pM/min, the “FXa generation rate at 6.3 nM mAb” value worked out at 390 pM/min, the “FXa generation rate at 12.5 nM mAb” value amounted to 381 pM/min and the “FXa generation rate at 25 nM mAb” value is 373 pM/min. In addition, in assay [2], the “FXa generation rate at 50 nM mAb” value is 369 pM/min, the “FXa generation rate at 100 nM mAb” value was found to be 375 pM/min and the “FXa generation rate at 200 nM mAb” value was 401 pM/min.
